In the DeepSol protein solubility set:

Assay: soluble on expression in E. coli; label from the status in PepcDB or PDB records

Soluble on expression in E. coli, not soluble:
MGSDKIHHHHHHMNPINWLVLVATVAGRNGTLRVRLWRQMKAIGAAALRDGVYLLPARPELRQMLANWRDELLAADGMAHVLQVVEDDPATQAGWRALFDRSEAYQQWGEALAALLAQPPGAESDARRSLRQLRKELEAIAAIDFFAGESLKSARRQCNDAEKWLTRHYSPDEPLAVGGDIPRLELADYQQRLWATRARPWVDRVASAWLIRRFIDPAARFAWLTDVHACPAEALGFDFDGAAFTHIGERVTFEVLLASFGLEHDPALSRLGELVHALDVGGSVVPEGTGFEAVLGGSRSRIADDDLLLADISNVLDSLYAHFQEAARPQGSRAPTL
MGSDKIHHHHHHMNQFKMSLFLPPISPVKDSATGRTVQPPTLTPYKEITLQEVYKLITSSERLKTLTETVRRAAENGDEKAYRMLKQQTLPYVTPCGVFSYRKSDSLTGPSGLIVVDIDHLDSRGEAEKLKRQLFDDRLLRPVLAFTSPGGRGVKAFIPYDLARIPDTRQNTSENIHWAMNYVQAIYDSHPDGEDKKTSRSGKGVDRSGKDLVRACFLSYDEEALIRREI
MGSDKIHHHHHHMNQNLSSYWIFYTVANAGNISKAAKELYISQPAISKSIQKLEDGLECKLFSRSSRGVVLTDEGRLLYDHVSEAFEALNEGEEKLKRSIELGVGQLKIGVSSTLCKYMLLPYLKEFIHRNPHISISIECQSTNETLKLLDDDKIDIGLIGKPASLKTFNFYYLDNIEDIFVTTKDYLRNLSARGVKKSEILQNSTLMLLDKGNMTRKYIDDYLQENQIHVKDSIDISNMDLLIDFAKIGVGVACVIKSIVSKELADGTLIEIPLGIPIHKREVGFAYKESSKLSTSLQTFIKFYESYTPEDF
MGSDKIHHHHHHMNQQTAAAQSTGVQAGTESSLLDEIVEKSKVAKSESEHARAKDLIGELVSQVLDGTVVVSDNLSATIDARVAELDRLISSQLSAVMHAAEFQRLESTWRGLDYLVKESNTGSTIKIKALHAPKRDLVRDFKNATEFDQSALFKKVYEEEFGTFGGSPFGVLVGDYEISRQPEDQYFIEQMSHVAAAAHAPFIASAAPELLGLESFADLGKPRDLGKVFDTVEYAKWKSFRDSEDSRYVGLTLPRFLGRLPFNPKDGAIAESFNFVEDVDGTDHDKYLWCNASWAFAARLTAAFDDFGWCAAIRGVEGGGLVEDLPTHTFKTDDGEIALKCPTEIAITDRREKELSDLGFIPLVHCKNSDYAAFFAAQSVQKPKKYSTDSANANAVLSAQLQYIFSVSRIAHYLKAMMRDKIGSFASAQNVETFLNRWISQYVLLDDDATQEQKAQFPLREASVQVSEIPGKPGAYRSVAFLRPHFQLDELSISLRLVADLPKPANS
MGSDKIHHHHHHMNQSRLICFVALLFVLSGCQGKPVTIPEEDGPMVVVSHIKESTFSFISKNKMELLETEESPYPLTAMVDIEGGQIVVTSQTEDTLFLFDTVQGKILPFITLNKGLTVMEFDRAKRMLFVADTLNDEIIQIDVDKREVQTRIAIDCSPTDLQVIDDLLFILSSETSTVFIYDMRSETMIQSFSVTERPAGMFYDGSHLWIGGHGPYGDLNKRIFAYNIKTGVIDQEVEVGLMPITIYQDQHDTYVYVLCHGDDALYKVDLDAKRVEASLSVGHNPYYLKGDGDHLYVSNLDDDTFSIIERTTFQVVNEINVPAGPYAIVLEEEE
MGSDKIHHHHHHMNRAATLAAYLTEKNWMSQPVSAGQVSFLAAGEYNENWLVQCGGRAAVLRINHGSQLGLRNQSEYEFSVLRHVASSGLTPQPYALDPLPWKHGPGKGAMLMEYIPGTPPDYRLHAADAARLFARVHGCPLPPRGDMIVQPDPVRDIARESTGLLHRQPDHPRSDIRTRLLNYRDTVLRLADDTAQLFAGEPQVITNTEVNSGNFIVLPPQHPRRGNEQAGVALCLVDWEKAVISCCHQDLGHFLVPTTTRWKTDFTFDAQSRTDFLRAYLQARHGSVDADALEALHLRTRVLERTILLRALSWCFMAWYEYSRGDRTLRNEFTYGRITSYLENIECILKYGE
MGSDKIHHHHHHMNRSGTISGNNFQSTAAQTTAGPRESRLAASVCRIAPFYDFILRRKIMRQKIPLLASFKLTFRCNLSCLACPFHQRAGEEKANMSWSLARASLDALKHQGTLIVVFEGGEPFLWRDGRHDLHDLVNYAGRLFPRVAVTTNGTFPLDVPADILWVSLDGLKETHDRLRSGSFDRVWENLEQCSHGRLFVHFTINRENRHDIRPLLEKLKGIPAFRGMTVQLFYPYGQGEASLALSDLERKTVLEEVVAMKKQGFPILNSAGRLTAMINNDWRCHDDILINVDPDGAITPGCYVKSRGRINCRNCGFSPVSEASGALDLFPGSLKAGWSIFLK
MGSDKIHHHHHHMNSKIYYFSGTGNSLVVSNILKETLNGSKEVIPLAIHRKENNIDINEDILVIVFPVYFADVPDIVKSFVEKLNFNINTHIYAIATCNGVAGHSLFTIDKLLKKRGKKLSAGFLINMPGNALITPPDVEEERLKNQTNRVAEIAKCINNLEIGNIEGKNNLKSHIDSVVLRLVGKNMQIATTKFFAENKCNGCGTCKRVCPVENISIVDKKPKWGNECERCLACFHWCPKEAINVKKSFLTNRKKYHHPDITVKDIFLDK
MGSDKIHHHHHHMNTDARMGAGVSLKAEHYDQALACNLEGLWFEVHPENYMVGGPRLAWLNRIAERHPVSLHGVALSLAADAAPDQDHLQRLRALCDQIEPVLVYYHLAWSTWQGHYHPDLLPFPRSNEALQRIAENIQRCQEVLGRRISIENPSHYLQLQGHEWDEIDFLGELTRRTGCGLLLDINNVYVSAHNLGFSATAYLDRFPAQAITEVHLAGHSDDDQGSLLIDSHDAQVAEPVWALYRKLVSRVGPRPTLIERDDKLPPFTELLAERSIAQSIMTCPGVLP
MGSDKIHHHHHHMNTITPISTRRVTLALQGGGSHGAFTWGVLDRLLEEPRLRIEAVSGTSAGAMNAACLAHGLADSGRQGARDTLERFWTAISNAAAFSPIRRSPLAIWLGNWSVADSMGYLMSTAFGRALSPYQSNPLNINPLRETVERIIDFDAVRACRDLSLFVTATNVHTGRPRIFTREDLSVDAVLASACLPHLFQAVEIDGVPYWDGGYVGNPALWPLIYETDVRDLLLVRINPLIREQTPMTGLEIADRLNEITFNASMFREMRAIAFVGRMLDEGSLDPERYKRMLIHAIEAEDDLKSLGASSKLNAELPFLFHLRDIGRRAADDWLTKNLEKIGYESTVDVASAYL
MGSDKIHHHHHHMNTKVMTAIPFTIDRDWLFTHLHIKPGKPYVEDVENMIEQALTIGKPKAAYRLAYIESKGEDFVVVDGFKFTSRVLRVNLAETFKVVPYVITCGEELERWAKTFHHMFESYCADGIMEAVMHSARVAFFSQIAEEYNLGHAVNMNPGSLEDWPLKEQAPLFQLLGDVKSLIGVELKESFLMSPIKTVSGFRFSKEGSYENCQLCPREKCPGRRAPYEQNLYAEKYQLK
MGSDKIHHHHHHMNVPKAGKVICAGLGPGDPELMSVKSWRALQGATHVAYFRKAGRAGQARAIVEGLLPAGVTEYPMEYPVTTEIHFSDPEYNRQLAAFYDQWADTLAEIAATQTVVVLCEGDPFLYGSFMHLHTRLEGRAEVEIIPGITGMSGCWTATGQPITWGDDVLTVAMATLSEDELTQRIRQTDALVVMKIGRNLPKLRRALEAAGRLQDAWLVERGTMPAQTVQKLTDVDGEVPYFSIVILHGEGRRP
MGSDKIHHHHHHMNYLRLNNITKRFGSFIANDNINLSVASGSIHAILGENGAGKSTLMNIISGLYQPDAGEIYLQEQPIKITSPNEAIKLGIGMIYQHFMLIPKLTVTENIILGIEKTWRLNLEDKQQKIAALSQAYGLEIDPTAKVENLSVGAQQRVEILKVLYRQAKLLILDEPTAVLTPPEVESLIAILRQLASAGNTIIFISHKLEEVMNLCDSVTVLRQGKVVATTSTEAATSQQLATLMVGREVALQLNKSPTLPGEIILSVQNLQVADERNILAVNNVSFELRAGEILGIAGVDGNGQRELADAIAFVRTIKQGKIEFTPKHSSVGYIPEDRQTMGLVLQFSIAQNLILKAFKYLPFCRRFLLQQEAIANRAQAAMQEFDIRASGKDILVSQLSGGNQQKVVLARELALTPALIIAMQPTRGLDVGATIAVQSRILTERDRGAAILYISTELEEVMAMSDRIAVIYRGEFVAILDAATAKVEEIGLLMAGGIN
MGSDKIHHHHHHMNYTNEVAKMTCVAKGPNHGPAPIPEEGKWVSAKEIKDISGLTHGVGRCAPQQGACKLTLNVKEGIIQEALVETIGCSGMTHSAAMAAEILSGKTILEALNTDLVCDAINTAMRELFLQIVYGRTQTAFSEGGLPVGAGLEDLGKGHRSQVGTMYSSAAKGPRYLEMVEGYVTKTGLDENNEIIGYEFINFGKMMDMIKQGMDANEAMKKATGNYGRFADAVKVIDPREE
MGSDKIHHHHHHMPENLIIPSVDLRIGALEEYNRRQKEKAHHRQKGPKPRPCITLSREFGCEGYPVAESLLKLMPEQTGDQWVLVDKDVLDEVARRHHVSREILEALGTKNRILSQVLATFSERWKTDHEYFELLCSHIVSLAEQGNVIIVGLGGAIITHHREHCYDFRIFGSREFKIGSICQRMNLPPDKAADLIEKQQAQIDNFTREFLFEDEANPAIYDLLFNNDRMCPETMARTIADYVAGRIAAGTADKRHV
MGSDKIHHHHHHMPMNRIDRLLGMITLLQAKKFVSAEKIADKFKISKRTVFRDIKAICEQGIPVGSEPNKGYFIVDGYFLPPVLFNNDEANALLLTESLVKGFADKSISKHYSNALDKIKAGLKQVDKDKLEHMQDAIKFQLPERMNNDFEYLSILQVAVSDKKIIYIDYKNNKEEVSKREIEPIGLIFYAFSWHLIGWCHHRKAYRDFKVSRIIQMKNTGVPFKKNKHMPLSEYMKELPVNY
MGSDKIHHHHHHMPRLIVLNDNTPSRGLINDWGWSILIEGRERFLFDADTNPLVLAHNSKVLNVNLRNLDFAVLSHWHYDHYGGFEYIAELNPGIKFYAPPQGLALAMRWGFQPIAINFGGKIEEEVYTSGVIDGIEQAIGLETSSGLVVIVGCSHPGVDRMVEEVLKVSGYEKAYLVIGGFHSPPIHRLRNLARLSELIAPAHCSGDVAKAFIKRNYKEKYVDVKTGTILEI
MGSDKIHHHHHHMPRQWNTDALSAGHLSCSSFFPFALTNKIIGRIKKKNNRMKGNNQLCTLLKLCLLSMLAFGTAKAQIQIVGAPSMKALDDSPNRLQVFMLHTLNPASVILRFAGAGTGKLYRYTTKAIEAEEVTTATYSDGMWTLTAPQLNCGYFVSGDGRLPQYYWISNYADYALFVSAVTGKPSETSPCISMDLAVDAAIRPIPYFQPNGIPRRLDRHVQISYPDMEWDAEARLFRPSTKEVEVEASDDERTLVVSASLADAVYTIHGDRFTKELSLPFTAVATDEILTPKVEVYAFVDKVDGGSAIGDNTPEEGDASLVSAPFTVMLAAYGNEPSAANFVWRIYRTEEGAENSVLVYNGTSTEFTFRQAGIYSILLQATNRTGTCTDEVLLENYFKVAESSLIVPNAFSPYGSPGVNDVFRVKHSSLVHFDGRIFDSWGKQIFRWTNPDEGWDGKYRGKMMPTGVYYYVIEAEGADGIKYKRKGDINILRPAYEIPLGGNLPR
